The record followed here is patent publication US20220332804A1 (CSL INNOVATION, published 2022).

The target of assay [1] is T1, human C2 A326S (human, UniProt P06681 21-752).
T1 sequence: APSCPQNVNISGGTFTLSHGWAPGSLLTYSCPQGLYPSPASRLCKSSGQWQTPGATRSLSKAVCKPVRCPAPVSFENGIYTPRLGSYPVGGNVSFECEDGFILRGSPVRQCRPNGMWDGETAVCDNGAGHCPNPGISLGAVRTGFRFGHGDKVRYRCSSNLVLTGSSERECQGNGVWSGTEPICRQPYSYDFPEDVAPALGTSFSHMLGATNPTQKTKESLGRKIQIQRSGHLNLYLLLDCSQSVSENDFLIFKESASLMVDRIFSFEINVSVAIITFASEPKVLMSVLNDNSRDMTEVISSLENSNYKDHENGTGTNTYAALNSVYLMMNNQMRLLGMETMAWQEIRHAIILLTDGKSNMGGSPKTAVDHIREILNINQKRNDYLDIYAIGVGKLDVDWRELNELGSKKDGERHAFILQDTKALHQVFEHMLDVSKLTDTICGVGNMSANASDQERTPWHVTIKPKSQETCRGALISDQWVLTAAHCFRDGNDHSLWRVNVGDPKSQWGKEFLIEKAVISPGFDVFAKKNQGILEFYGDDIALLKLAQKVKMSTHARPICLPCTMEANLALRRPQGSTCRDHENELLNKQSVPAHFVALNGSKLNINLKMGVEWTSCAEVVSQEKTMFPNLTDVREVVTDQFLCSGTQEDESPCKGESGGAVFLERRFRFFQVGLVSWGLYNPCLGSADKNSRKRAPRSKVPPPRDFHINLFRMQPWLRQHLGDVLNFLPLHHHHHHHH
In words: SPR, KD relative to WT C2.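 Also: biacore SPR at 37 °C, anti-C2 mAbs captured on anti-human IgG chips with alanine or serine point mutants of C2 as analyte, KD from 1:1 fit compared with wild-type C2.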

Assay [2] has as its target T2, human C2 G414A (human, UniProt P06681 21-752).
T2 sequence: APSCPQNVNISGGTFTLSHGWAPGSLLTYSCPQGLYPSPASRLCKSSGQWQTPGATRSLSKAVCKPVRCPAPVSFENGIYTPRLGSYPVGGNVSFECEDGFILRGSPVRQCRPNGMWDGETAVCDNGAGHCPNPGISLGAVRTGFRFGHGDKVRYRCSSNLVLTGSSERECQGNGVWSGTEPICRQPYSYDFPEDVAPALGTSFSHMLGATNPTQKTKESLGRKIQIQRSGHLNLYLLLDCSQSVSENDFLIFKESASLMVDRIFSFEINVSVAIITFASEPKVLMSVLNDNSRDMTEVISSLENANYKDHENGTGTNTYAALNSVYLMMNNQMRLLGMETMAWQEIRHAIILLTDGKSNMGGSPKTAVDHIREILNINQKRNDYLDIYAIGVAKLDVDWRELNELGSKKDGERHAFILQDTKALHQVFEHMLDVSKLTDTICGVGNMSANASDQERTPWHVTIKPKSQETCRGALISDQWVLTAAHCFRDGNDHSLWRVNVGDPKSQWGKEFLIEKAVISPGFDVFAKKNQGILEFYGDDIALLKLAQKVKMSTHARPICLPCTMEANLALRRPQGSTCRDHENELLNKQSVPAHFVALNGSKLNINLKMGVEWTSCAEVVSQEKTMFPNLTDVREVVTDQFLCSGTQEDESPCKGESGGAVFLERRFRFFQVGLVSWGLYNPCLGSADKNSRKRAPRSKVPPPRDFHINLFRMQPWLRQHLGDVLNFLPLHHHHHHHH
Briefly: SPR, KD relative to WT C2.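 Also: biacore SPR at 37 °C, anti-C2 mAbs captured on anti-human IgG chips with alanine or serine point mutants of C2 as analyte, KD from 1:1 fit compared with wild-type C2.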

Assay [3] deals with T3, human complement C2 (human, UniProt P06681 21-752).
T3 construct: Recombinant full-length human C2 with C-terminal 8x His tag, purified from Expi293F supernatant; also called human C2; huC2
T3 sequence: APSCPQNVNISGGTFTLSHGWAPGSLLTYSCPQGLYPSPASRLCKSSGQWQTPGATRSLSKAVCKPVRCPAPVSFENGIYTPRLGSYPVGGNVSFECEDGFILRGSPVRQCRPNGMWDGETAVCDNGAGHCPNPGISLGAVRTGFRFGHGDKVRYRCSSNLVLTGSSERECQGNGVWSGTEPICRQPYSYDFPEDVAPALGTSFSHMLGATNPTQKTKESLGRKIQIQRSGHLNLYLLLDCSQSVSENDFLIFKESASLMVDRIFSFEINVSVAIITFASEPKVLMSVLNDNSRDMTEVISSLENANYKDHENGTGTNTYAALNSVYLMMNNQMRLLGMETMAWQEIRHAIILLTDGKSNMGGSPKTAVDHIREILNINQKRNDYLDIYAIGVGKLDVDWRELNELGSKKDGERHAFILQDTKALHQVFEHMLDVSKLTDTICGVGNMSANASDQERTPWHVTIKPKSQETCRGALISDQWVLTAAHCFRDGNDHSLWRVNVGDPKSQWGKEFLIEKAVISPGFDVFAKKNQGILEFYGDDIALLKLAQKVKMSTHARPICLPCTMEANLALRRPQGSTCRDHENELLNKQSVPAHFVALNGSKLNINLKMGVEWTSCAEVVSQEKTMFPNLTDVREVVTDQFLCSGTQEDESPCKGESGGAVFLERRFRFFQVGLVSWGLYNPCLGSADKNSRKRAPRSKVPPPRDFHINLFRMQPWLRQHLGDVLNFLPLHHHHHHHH
Briefly: SPR, mAb captured, C2 analyte, MHAs buffer, pH 6.0, steady state.
Experimental: Surface plasmon resonance (SPR, Biacore) was used for all binding affinity analyses. In brief, goat anti-human IgG was directly immobilised onto the carboxymethyl dextran surface of CM5 sensorchips to approximately 12,000 RU using standard NHS/EDC chemistry at pH 5. The immobilised antibody surface was pre-conditioned with ten injections of polyclonal human IgG (Privigen 60 s) prepared at 1 μg/mL. Ligands (anti-C2 mAbs) were captured at the beginning of each cycle as described below. An adjacent spot or flow cell in which only Polyclonal IgG was capture was used as a reference surface. The goat anti-human IgG Fc antibody surface was regenerate in 100 mM H3PO4, injected for 45 seconds at the end of each cycle. Experiments were performed at 37° C. and the flow rate of each experiment was kept constant at 30 μL/min.
This buffer contains ammonium sulfate instead of sodium chloride.

B1: RF16-242 (antibody, human IgG4 S228P, lambda, V domains shown)
VH: EVQLLQSGAEVKKPGESLKISCKGSGYSFTSYWIGWVRQMPGKGLEWMGIIYPGDSDTRYSPSFQGQVTISADKSISTAYLQWSSLKASDTAMYYCARRGHYGDYFDYWGQGTLVTVSS
VL: SYELTQPPSVSVSPGQTARITCSGDALPKKYAYWYHQKSGQAPVLVIYEDRRRPSEIPERFSGSSSGTMATLTITGAQVEDEGVYFCYSRDRAGNQRVFGGGTQLTVLG
notes: pH-dependent anti-C2 antibody from a phage display library
Turning to B1, the Fold diff in assay [1] and in assay [2] was 1 fold throughout.

B2: RF16-226 (antibody)
heavy: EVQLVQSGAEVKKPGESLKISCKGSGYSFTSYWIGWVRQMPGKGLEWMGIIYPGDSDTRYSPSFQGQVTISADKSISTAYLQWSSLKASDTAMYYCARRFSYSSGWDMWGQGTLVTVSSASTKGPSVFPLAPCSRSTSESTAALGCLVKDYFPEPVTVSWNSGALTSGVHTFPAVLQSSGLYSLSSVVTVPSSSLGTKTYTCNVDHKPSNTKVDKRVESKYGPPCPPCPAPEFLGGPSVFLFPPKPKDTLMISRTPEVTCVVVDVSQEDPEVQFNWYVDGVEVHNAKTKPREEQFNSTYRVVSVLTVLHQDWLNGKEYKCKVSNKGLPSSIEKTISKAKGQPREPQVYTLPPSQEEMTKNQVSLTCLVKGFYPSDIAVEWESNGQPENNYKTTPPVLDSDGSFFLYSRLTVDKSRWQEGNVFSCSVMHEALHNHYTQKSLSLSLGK
light: SYELTQPPSVSVSPGQTARITCSGDALTSKYVAWYQQKSGLAPLLVIYEDTRRPSGIPAKFSGSSSGSVATLTISGAHGDDEADYYCYSTDASGHQRVFGGGTKLTVLSQPKAAPSVTLFPPSSEELQANKATLVCLISDFYPGAVTVAWKADGSPVKAGVETTKPSKQSNNKYAASSYLSLTPEQWKSHRSYSCQVTHEGSTVEKTVAPTECS
With B2, the Kd in assay [3] is 2230 nM.

B3: RF16-214 (antibody, V domains shown)
VH: EVQLLESGGGLVQPGGSLRLSCAASGFTFSWYQMMWVRQAPGKGLEWVSRIYPSGGGTAYADSVKGRFTISRDNSKNTLYLQMNSLRAEDTAVYYCARDAGYGDNWGQGTLVTVSS
VL: QSALTQPPSVSVSPGQTASITCSGDKLGEKYASWYQQKAGQSPVMVIYQDRKRPSGIPERFSGSNSGNTATLTISGTQAMDEADYYCQAWDTRAVVFGGGTKLTVLG
Turning to B3, in assay [3], the dissociation constant Kd is 2170 nM.
